Experimental data published in paper PMC3630089, “ATP-Dependent Chromatin Remodeling by Cockayne Syndrome Protein B and NAP1-Like Histone Chaperones Is Required for Efficient Transcription-Coupled DNA Repair” (PLoS Genetics, 2013).

Target: T1, CSBΔN1 (CSB lacking amino acids 245-365), purified from SF9 cells (human, UniProt Q03468 1-1493, removing amino acids 245–365)
T1 construct: CSB with the N1 region (amino acids 245-365) removed; probably Flag-tagged like the other SF9 CSB proteins; source: SF9 cells, purified
T1 sequence (Q03468 other isoform, or with tags, fused parts or gaps with the stated changes): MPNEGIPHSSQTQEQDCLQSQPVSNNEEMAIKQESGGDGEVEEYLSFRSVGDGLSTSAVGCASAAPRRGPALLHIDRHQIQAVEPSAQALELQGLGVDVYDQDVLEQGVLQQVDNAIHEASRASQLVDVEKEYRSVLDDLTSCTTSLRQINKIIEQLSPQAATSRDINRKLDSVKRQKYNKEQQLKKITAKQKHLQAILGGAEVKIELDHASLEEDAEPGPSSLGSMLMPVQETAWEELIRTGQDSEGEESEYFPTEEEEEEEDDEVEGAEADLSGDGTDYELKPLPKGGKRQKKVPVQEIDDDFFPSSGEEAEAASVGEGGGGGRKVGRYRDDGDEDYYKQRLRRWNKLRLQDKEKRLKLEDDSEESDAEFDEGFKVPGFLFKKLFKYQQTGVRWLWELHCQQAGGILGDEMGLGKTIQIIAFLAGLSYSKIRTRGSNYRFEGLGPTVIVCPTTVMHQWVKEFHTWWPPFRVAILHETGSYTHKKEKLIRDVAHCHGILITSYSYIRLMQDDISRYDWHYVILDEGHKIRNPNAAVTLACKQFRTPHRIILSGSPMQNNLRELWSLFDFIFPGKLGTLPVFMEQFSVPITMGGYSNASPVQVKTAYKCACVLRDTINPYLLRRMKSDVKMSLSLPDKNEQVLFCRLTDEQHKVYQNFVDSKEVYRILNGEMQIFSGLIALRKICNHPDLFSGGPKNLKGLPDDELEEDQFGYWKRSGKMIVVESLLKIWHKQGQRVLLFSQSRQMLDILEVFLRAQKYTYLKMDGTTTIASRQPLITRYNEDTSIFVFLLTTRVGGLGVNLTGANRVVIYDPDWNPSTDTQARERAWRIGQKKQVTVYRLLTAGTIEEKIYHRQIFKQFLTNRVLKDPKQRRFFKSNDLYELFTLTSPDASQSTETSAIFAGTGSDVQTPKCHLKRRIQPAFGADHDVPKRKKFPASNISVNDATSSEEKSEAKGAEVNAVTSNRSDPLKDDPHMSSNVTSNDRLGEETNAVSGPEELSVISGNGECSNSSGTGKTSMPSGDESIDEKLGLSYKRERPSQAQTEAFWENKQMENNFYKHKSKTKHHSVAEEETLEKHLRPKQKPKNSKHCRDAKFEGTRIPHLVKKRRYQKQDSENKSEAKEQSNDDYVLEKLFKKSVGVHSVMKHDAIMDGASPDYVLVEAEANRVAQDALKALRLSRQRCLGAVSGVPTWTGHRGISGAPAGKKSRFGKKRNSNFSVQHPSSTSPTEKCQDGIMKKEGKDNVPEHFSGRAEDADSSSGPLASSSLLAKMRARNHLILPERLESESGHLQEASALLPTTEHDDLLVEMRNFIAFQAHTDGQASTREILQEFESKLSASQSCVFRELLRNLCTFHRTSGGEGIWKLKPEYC
Test: pull-down; GST-NAP1L1 immobilized on glutathione beads, mixed with purified CSB or CSBΔN1; Western blot
Conditions: both partners purified

B1: GST-NAP1L1 fusion protein (natural protein, human, UniProt P55209 1-391, looked up)
chain: MADIDNKEQSELDQDLDDVEEVEEEETGEETKLKARQLTVQMMQNPQILAALQERLDGLVETPTGYIESLPRVVKRRVNALKNLQVKCAQIEAKFYEEVHDLERKYAVLYQPLFDKRFEIINAIYEPTEEECEWKPDEEDEISEELKEKAKIEDEKKDEEKEDPKGIPEFWLTVFKNVDLLSDMVQEHDEPILKHLKDIKVKFSDAGQPMSFVLEFHFEPNEYFTNEVLTKTYRMRSEPDDSDPFSFDGPEIMGCTGCQIDWKKGKNVTLKTIKKKQKHKGRGTVRTVTKTVSNDSFFNFFAPPEVPESGDLDDDAEAILAADFEIGHFLRERIIPRSVLYFTGEAIEDDDDDYDEEGEEADEEGEEEGDEENDPDYDPKKDQNPAECKQQ
notes: human NAP1-like histone chaperone NAP1L1; source: bacterially expressed, immobilized on glutathione beads
B1: binds.
